This passage reports endocytosis of S. cerevisiae by β1AGD25 cells (differential fluorescence assay) results from patent US20180051068A1.

In this assay the target is integrin β1 expressed by the β1AGD25 cell line. Briefly: cell-based or functional assay.

“CalA-mCherry expressed in S. cerevisiae that co-expresses Candida albicans Als1” displayed an endocytosis of S. cerevisiae by β1AGD25 cells (differential fluorescence assay) of 3 times.
